Data on five molecules can be found in patent US20250084126A1, “PEPTIDE AND COMPOSITION” (OSAKA UNIVERSITY, priority 2021, published 2025).

Data set [1] has as its system hDPSCs. Description: LDH-assay cytotoxicity to hDPSCs. The format is cell-based, human. The conditions noted are these: for cytotoxicity, overall conclusion: 0.1-100 μg/ml, versus PBS; for cytotoxicity compared to the control (LDH-assay): 2 days, control PBS, p<0.05. On the procedure:
The hDPSCs were seeded in α-MEM medium containing 10% FBS added with the four peptides at concentrations of 0.1, 1, 10, and 100 μg/ml in a 96 well plate at 5,000 cells/well and cultured at 37° C. for 2 days in a 5% CO2 gas phase. For toxicity test, culture supernatant was collected and LDH-assay was performed using LDH Cytotoxicity Detection Kit (Takara Bio Inc., Shiga). A reagent was added to the collected culture supernatant, and the culture supernatant was placed at 37° C. for 30 minutes in the 5% CO2 gas phase. The absorbance at 405 nm was then measured using the microplate reader (ARVO MX). To further evaluate the proliferative capacity, WST-1-assay was performed using Premix WST-1 Cell Proliferation Assay System (Takara Bio Inc.) after the cells had been continuously cultured for 1 day. The culture was added with a WST-1 reagent and allowed to stand for 30 minutes at 37° C. in the 5% CO2 gas phase. After shaking for 1 minute at room temperature, the absorbance at 450 nm was measured using the microplate reader (ARVO MX). A sample in which the PBS was added to the culture was used as a control, and the number of samples was 6 for each condition.
(§1) The statistical significance test in the above experiment was performed using the One-way ANOVA and Tukey's test for a cytotoxicity test and Kruskal-Wallis-test for a cell proliferation test and a comparison of the amount of formed tertiary dentin in the direct pulp capping experiment, with a critical value of 5%.

Data set [2] concerns exposed pulp of rat molars. Description: Direct pulp capping experiment using Protein S100 family-derived peptide. It counts as in vivo. Particulars: 4 weeks; for structure of the tertiary dentin compared to the samples treated with the peptides (HE staining): 1 μg/ml; for number of samples with tertiary dentin formation that completely sealed the exposed pulp region: micro-CT scoring, n=8 per condition, peptides 100 μg/ml, recombinant proteins 1 μg/ml, 20 μl in gelatin sponge; for closure of the surface of the exposed pulp (HE staining): representative samples with complete tertiary dentin formation. On the procedure: To evaluate the effect of the Protein S100 family-derived peptide on ability of forming of the tertiary dentin, a direct pulp capping experiment was performed on rat molars using a gelatin sponge (Spongel®) soaked with 20 μl of each PBS solution containing the No. 28, No. 47, No. 32, or No. 51 peptide at a concentration of 100 μg/ml using the same way as described in the section 1) of “Materials and Methods” of the section 1 of the section I above. PBS solution containing the S100-A8 (PROSPEC, Israel), the PBS solution containing the S100-A9 (PROSPEC), wherein the S100-A8 and S100-A9 are a recombinant of the protein from which the peptide was derived, at a concentration of 1 μg/ml, and the PBS solution alone were used as controls. After 4 weeks from the capping treatment, the micro-CT imaging and image analysis were performed on the tertiary dentin formed just below the exposed pulp. An evaluation method, in which the amount of formed tertiary dentin observed in histopathological images was scored, in the direct pulp capping experiment conducted by Okamoto et al. in the past, was applied to the micro-CT images in this study, and the evaluation was performed by scoring the formed tertiary dentin [Clinical Oral Investigations 2018, 22(8):2879-2887; Journal of Dentistry 2010, 38(10):828-837]. The evaluation was performed by one person, with a score of Grade 0 in cases where the tertiary dentin was formed in only one-third or less of the exposed pulp region, Grade 1 in cases where the tertiary dentin was formed in one-third to two-thirds of the exposed pulp region, Grade 2 in cases where the tertiary dentin was formed in two-thirds or more of the exposed pulp region, and Grade 3 in cases where the formed tertiary dentin was completely covering the exposed pulp region. In addition, the same micro-CT images were analyzed using the same way as described in the section 2) of “Materials and Methods” of the section 1 of the section I above to evaluate the volume of the formed tertiary dentin. HE staining was also performed using the same way as described in the section 3) of “Materials and Methods” of the section 1 of the section I above, and histopathological evaluation of the formation of the tertiary dentin was performed. The number of samples was 8 for each condition.
as §1

In data set [3] the test system is exposed pulp. Particulars: rat in vivo, reported in Non Patent Literature 1; cited from earlier work.
For data set [4], the system named is hDPSCs. Description: Proteome analysis (LC-MS/MS) of proteins expressed by hDPSCs. The format is cell-based, human. Particulars: 0.1 mM, 7 days. As for the experimental part:
The No. 28 peptide or the recombinant S100-A8, the protein from which the No. 28 peptide is derived, was applied to the hDPSCs to compare and quantify the proteins expressed by the hDPSCs by the LC-MS/MS. The hDPSCs were seeded in a 100 mm cell culture dish at 3,000,000 cells/plate in the mineralization induction medium containing each of the samples containing the No. 28 peptide or the S100-A8 at a concentration of 0.1 mM, and cultured at 37° C. in the 5% CO2 gas phase for 7 days. Then, plasma membrane and cytoplasmic proteins were extracted using a plasma membrane protein extraction kit (Cosmo Bio Co., Ltd., Tokyo). As a practical procedure, the hDPSCs were cultured for 7 days, collected with a scraper, added with Buffer A included in the kit, and left on ice for 10 minutes. The hDPSCs were then transferred into a microtube with a filter cartridge included in the kit and centrifuged at 14,000 rpm for 30 seconds. After discarding the cartridge and agitating for 10 seconds, the microtube was centrifuged at 3000 rpm for 1 minute and the supernatant was collected. The collected supernatant was then centrifuged at 14,000 rpm for 30 minutes to extract the cytoplasmic proteins separated in a supernatant and the plasma membrane proteins separated in pellet. As a control, the hDPSCs cultured in mineralization induction medium supplemented with the PBS were used.
Each sample was analyzed by liquid chromatography using UltiMate 3000 Nano LC systems (Thermo Fisher Scientific, USA) and ESI-column (0.075×150 mm) (Thermo Fisher Scientific). A 0.1% formic acid aqueous solution containing acetonitrile was used as a mobile phase at a flow rate of 300 nL/min. The concentration of acetonitrile was 5% for the first 5 min, increased to 40% in 95 min, then increased at a constant rate for 2 min to 90%, and maintained for 5 min. The peptides were analyzed using Q-Exactive (Thermo Fisher Scientific). Identification and quantitative analysis of the proteins were performed by peptide mass fingerprinting using Mascot Distiller v2.5, Mascot Server v2.5 (Matrix Science, USA), and UniProt on obtained MS/MS spectra.
In addition, to evaluate changes in expression levels of the proteins, the following criteria were used to narrow down the identified plasma membrane-derived and cytoplasm-derived proteins among the samples.
• Proteins whose measured values were higher in the S100-A8 group than in the control group • Proteins whose measured values in the peptide group are more than twice as high as those in the control group • Proteins whose measured values in both the peptide group and the S100-A8 group are equal to or greater than 1 (a.u.; arbitrary unit)
• Proteins whose measured values were lower in the S100-A8 group than in the control group • Proteins whose measured values in the control group are more than twice as high as those in the peptide group • Proteins whose measured values in the control group are equal to or greater than 1 (a.u.; arbitrary unit)
Each of the groups narrowed down by the above criteria was analyzed using Gene Ontology (GO) classification. The GO provides an internationally standardized GO Term, which is intended to describe biological functions. The GO Term is organized in a hierarchical structure, with the upper order representing general functions and the lower order representing more detailed functions. For example, there are three categories at the top: “Molecular function,” “Biological process,” and “Cellular component.”
The GO Term belonging to “Molecular function” and “Biological process” which represent their respective functions from the above classification were searched for the protein groups obtained in this experiment, and the functions characteristic to each protein group were examined.

The test system of data set [5] is pulp cells. Particulars: reported in Non Patent Literature 1; cited from earlier work.
Setting [6] is: mineralization induction medium, count for No. 28 peptide or S100-A8 jointly.

No end group written: not given here.

Consider “KLLETECPQ [No. 28 peptide, Lys-Leu-Leu-Glu-Thr-Glu-Cys-Pro-Gln]”, for which the “cytotoxicity, overall conclusion” value in data set [1] is recorded as “comparable to that of the PBS”. Besides, the “cytotoxicity compared to the control (LDH-assay)” value in data set [1] (all concentrations (0.1, 1, 10, 100 μg/ml)) is listed as “significantly lower cytotoxicity”.
Consider “NADKQLSFE [No. 51 peptide, Asn-Ala-Asp-Lys-Gln-Leu-Ser-Phe-Glu]”, for which the “cytotoxicity compared to the control (LDH-assay)” value in data set [1] (10 μg/ml) and in data set [1] (100 μg/ml) was “significantly lower cytotoxicity” throughout. The “cytotoxicity, overall conclusion” value in data set [1] is reported as “comparable to that of the PBS”.
For “NTDGAVNFQ [No. 32 peptide, Asn-Thr-Asp-Gly-Ala-Val-Asn-Phe-Gln]”, the “cytotoxicity compared to the control (LDH-assay)” value in data set [1] (1 μg/ml) is recorded as “significantly lower cytotoxicity”. The “cytotoxicity, overall conclusion” value in data set [1] was “comparable to that of the PBS”.

B1: S100-A9: recombinant of the protein from which the peptide was derived (PROSPEC); UniProtKB-P06702 (protein, UniProt P06702 1-114, looked up)
Protein S100-A9: MTCKMSQLERNIETIINTFHQYSVKLGHPDTLNQGEFKELVRKDLQNFLKKENKNEKVIEHIMEDLDTNADKQLSFEEFIMLMARLTWASHEKMHEGDEGPGHHHKPGLGEGTP
In the case of B1, in data set [2], the “structure of the tertiary dentin compared to the samples treated with the peptides (HE staining)” value is “sparse structure”, the “number of samples with tertiary dentin formation that completely sealed the exposed pulp region” value was 2 samples and the “closure of the surface of the exposed pulp (HE staining)” value is listed as “completely closed by the formed tertiary dentin”.

B2: S100-A8: recombinant of the protein from which the peptide was derived (PROSPEC); UniProtKB-P05109 (protein, UniProt P05109 1-93, looked up)
Protein S100-A8: MLTELEKALNSIIDVYHKYSLIKGNFHAVYRDDLKKLLETECPQYIRKKGADVWFKELDINTDGAVNFQEFLILVIKMGVAAHKKSHEESHKE
On to B2, for which the “tertiary dentin induction in the direct pulp capping experiment” value in data set [3] is reported as “completely covers the surface of the exposed pulp”. In addition, in data set [4] (GO Term analysis), the “expression levels of proteins promoting MAPK signaling pathway (MAP2K1, CDH2, NRAS, MAP1, CRK, PSMB7) versus control” value is reported as “decreased” and the “expression levels of proteins promoting NFκB signaling pathway (FLOT1, 3KCR1, LYRIC, GJA1, S100A-13, NOL3) versus control” value is listed as “more increased”. In addition, in data set [4] (setting [6]), the “cytoplasm-derived proteins whose expression levels were more decreased than in the control” value is on record as 67 proteins, the “cytoplasm-derived proteins whose expression levels were more increased than in the control” value came out at 250 proteins, the “plasma membrane-derived proteins whose expression levels were more decreased than in the control” value turned out to be 97 proteins and the “plasma membrane-derived proteins whose expression levels were more increased than in the control” value is listed as 158 proteins. Also, in data set [2], the “structure of the tertiary dentin compared to the samples treated with the peptides (HE staining)” value was “sparse structure”, the “number of samples with tertiary dentin formation that completely sealed the exposed pulp region” value is recorded as 1 samples and the “closure of the surface of the exposed pulp (HE staining)” value was “completely closed by the formed tertiary dentin”. Also, in data set [5], the “effect on pulp cells in vitro” value was “activates proliferation, differentiation, and mineralization abilities”.
